This passage reports protein production results from a protein production outcome set (Wang et al. 2014).

The data set in a line: label from the status in PepcDB records.
As for “LYDQGGPVEILPFLYLGSAYHASRKDMLDALGITALINVSANCPNHFEGHYQYKSIPVEDNHKADISSWFNEAIDFIDSIKNAGGRVFVHCQAGISRSATICLAYLMRTNRVKLDEAFEFVKQRRSIISPNFSFMGQLLQFESQVLAPHCSAEAGSPAMAVLDRGTSTTTVFNFPVSIPVHSTNSALSYLQSPITTSPSC”, the protein production entry was “failed”.

Turning to “LYQGFEKEFGRPLSPIELEMIGQWLNTDHYSPELIRLALREAVLNQAYSLKYIDRILLAWERKNITTKEQVAA”, the protein production result is “failed”.

Regarding “MAAALPRTLGELQLYRILQKANLLSYFDAFIQQGGDDVQQLCEAGEEEFLEIMALVGMASKPLHVRRLQKALRDWVTNPGLFNQPLTSLPVSSIPIYKLPEGSPTWLGISCSSYERSSNAREPHLKIPKCAATTCVQSLGQGKSDVVGSLALQSVGESRLWQGHHATESEHSLSPADLGSPASPKESSEALDAAAALSVAECVERMAPTLPKSDLNEVKELLKTNKKLAKMIGHIFEMNDDDPHKEEEIRKYSAIYGRFDSKRKDGKHLTLHELTVNEAAAQLCVKDNALLTRRDELFALARQISREVTYKYTYRTTKSKCGERDELSPKRIKVEDGFPDFQDSVQTLFQQARAKSEELAALSSQQPEKVMAKQMEFLCNQAGYERLQHAERRLSAGLYRQSSEEHSPNGLTSDNSDGQGERPLNLRMPNLQNRQPHHFVVDGELSRLYPSEAKSHSSESLGILKDYPHSAFTLEKKVIKTEPEDSR”, the protein production entry is on record as “not failed”.

For “MAADKLADEVACMANTPGGGALIVGIEDKTGRIIGTELDIDWLRQGIFTRIDVAPDVVAKRVLGQRVLAIYVAAAAEPIEDTSDRLRWRVGDSCRPVDLEHHHHHH”, the protein production entry is reported as “failed”.

With “MAADVVFPGLCVFLSAGLLLALVHGRRVGRRADRQCRHLAAITDTMSEGFYVVDGDDRIVMANAAAGRILGYTQDDLIGACAHALFHARSADDPDPVPLEECRLNRAVRERRAAFLDVGHFRHRSGKIIAVEVSCNPVADTLAEEGRRGGLLGWLLDGDDAEGAPGALLSMVTFVDITARRESEAAVIKLSHAVEQSSASIVITDADGRIEYANPAFTKISGYTAQEAIGRRPSILKSGLVPAETYRALWQTITNGGEWRGEFHNRRKDGTLYWEMASISPIRDARGKITNFVAVKDDVTERKAIESELYHRANYDALTGLPNRQLLLDRVSTALDLARRHDRRVAVMFMDIDRFKQINDSMGHAAGDVLLKQAASRLAAVLRPQDTLGRLGGDEFLVVAPGLRWESEATALASRLLEVARRPFTIDGREVYVSVSIGVSLGPVDGTTAQALMRNADAAMYLAKGGGRDAAHFFTPDIEAAARRRMLIENGLRTAVSDGSLYLALQPIIACADHTMIKAEALLRWTHPQLGGVPPSEFIPIAEESGLIRAIGAWVIEEAARLLVSLDPPRDGAFRLGINIASSQFTGGLHHHVAGMLARYDLDPRMLEIEITERMLLDPSPAILEQVDALRAMGVSIAIDDFGTGYSALSYLSVFHVDTLKIDRAFVSVMTDEARSQALIGAIVALGHELGCAVVAEGVETADQARLLGELAVDALQGYFLGRPTTAEAISDRLNPGTGRPYDKAALGTEFAEGGDLGLSVGAL”, the protein production result was “failed”.

Regarding “MAAFQIANKTVGKDAPVFIIAEAGINHDGKLDQAFALIDAAAEAGADAVKFQMFQADRMYQKDPGLYKTAAGKDVSIFSLVQSMEMPAEWILPLLDYCREKQVIFLSTVCDEGSADLLQSTSPSAFKIASYEINHLPLLKYVARLNRPMIFSTAGAEISDVHEAWRTIRAEGNNQIAIMHCVAKYPAPPEYSNLSVIPMLAAAFPEAVIGFSDHSEHPTEAPCAAVRLGAKLIEKHFTIDKNLPGADHSFALNPDELKEMVDGIRKTEAELKQGITKPVSEKLLGSSYKTTTAIEGEIRNFAYRGIFTTAPIQKGEAFSEDNIAVLRPGQKPQGLHPRFFELLTSGVRAVRDIPADTGIVWDDILLKDSPFHE”, the protein production result is “not failed”.

As to “MAAHDDDMNRGIRPGRGSDDPAGQIAYLEQEIAVLRRKLADSPRHTRILEERIVELQTNLAGVSAQNERLANTLREARDQIVALKEEVDRLAQPPAGFGVFLTANEDGTADIFTGGRKLRVNVSPSVELEELRRGQELMLNEALNVVEAMEYESVGDIVTLKEILEDGERALVVGHTDEERVVRLAEPLLDVTIRPGDALLLEPRSGYVYEVVPKSEVEELVLEEVPDIGYEQIGGLGNQIEMIRDAVELPYLYPDLFKEHELRPPKGVLLYGPPGCGKTLIAKAVANSLAKKVAEVTGQATGKSFFLNIKGPELLNKYVGETERQIRLVFQRAREKASEGTPVIVFFDEMESLFRTRGSGVSSDVENTIVPQLLAEIDGVEGLQNVVVIGASNREDMIDPAILRPGRLDVKIKIERPDAEAAKDIFGKYLTERLPLHTEDVGEHGGDRSATVHGMIQTAVEQMYAESEENRFLEVTYANGDKEVLYFKDFNSGAMIENIVGRAKKMAIKDFLEHSQKGLRVSHLLQACVDEFKENEDLPNTTNPDDWARISGKKGERIVYIRTLITGKQGADTGRSIDTVANTGQYL”, the protein production result was “failed”.

Consider “MAAKFHLKKAKDGQFHFNLHAANGEIILTSELYKAKDSALGGIESVRKNSQRDGAFEVKPANNGKFHFVLKATNGQVVGQSQLYASQANAEAGVQSVKRATPEAGLSDESLEHHHHHH”, for which the protein production entry was “not failed”.

Consider “MAALRYAGLDDTDSEDELPPGWEERTTKDGWVYYANHTEEKTQWEHPKTGKRKRVAGDLPYGWEQETDENGQVFFVDHINKRTTYLDPRLAFTVDDNPTKPTTRQRYDGSTTAMEILQGRDFTGKVVVVTGANSGIGFETAKSFALHGAHVILACRNMARASEAVSRILEEWQQGAATTVYCAAVPELEGLGGMYFNNCCRCMPSPEAQSEETARTLWALSERLIQERLGSQSG”, for which the protein production entry is “not failed”.

With “MAAMPKPAAFWNDRFANEEYVYGEAPNRFVASAARTWLPEAGEVLLLGAGEGRNAVHLAREGHTVTAVDYAVEGLRKTERLATEAGVEVEAIQADVREWKPARAWDAVVVTFLHLPADERPGLYRLVQRCLRPGGRLVAEWFRPLEHHHHHH”, the protein production entry is “failed”.

As for “MAAMQWCGAMTRRIMMTQRTSAALNCSARYSSLSPACAAPAVSEMDLCGRGDKKTKKGKRFKGSYGNSRGKKQKMIERIKDKLELPRSTPWPLPFKLI”, the protein production result is given as “not failed”.

For the sequence “MAANDRAAAPGKSGGSAGADGLMRASLSAVAPGTSLRDGLERVLRGNTGGLIVLGSDKTVESMCTGGFVLDVEFTATRLRELCKLDGGIVLSSDLSKILRAGVQLLPDPTIPTEETGTRHRTADRVSKQVGFPVVSVSQSMRLIALYVDGQRRVLEDSAAILSRANQALATLERYKLRLDEVAGTLSALEIEDLVTVRDVSAVAQRLEMVRRIATEIAEYVVELGTDGRLLALQLDELIAGVEPERELVVRDYVPEPTAKRSRTVDEALAELDKLSHAELLELSTVARALGYTGSPETLDSAVSPRGFRLLAKVPRLPGAIIDRLVEHFGGLQKLLAASVDDLQTVDGVGEARARSVREGLSRLAESSILERYV”, the protein production result was “not failed”.

Consider “MAANGVRRALQASSSSGKILFGRSSAATSASKIGKSAGIAFGNGSSSSTRPSLRRLTFSRVPVELSAGISLIPLHSVTASALLTSLLSLSNQNWSCLSEGKFFTCVHDLCLELKLILNFCFQTRSKCSLNW”, for which the protein production result is recorded as “failed”.

With “MAANNSIEWRAVCEKFRLAQELSEIESKKDPENNPFRSKYKARDLLKEIHCSLKKIEIEEQGEAGDEADCESSQTADGEPEDGFEKTFTGDSAAGLRAARLAVLQYHLGVNHIETEELSAGELHLMVCMKLIDKCTTTRENVSLFIHVRNQLGILWAGRDEIEKAQGFLEIAETMYLVYMKEDGQPPLDLQDFFVPEGESQSFTGVLQLRSAVLRGESRSQERCRNRARAEYGDGLPAPSEDQQNSIHSGLLQLKW”, the protein production entry is “failed”.

Turning to “MAANVSGAKSCPANFLAAADDKLSGFQGDFLWPILVVEFLVAVASNGLALYRFSIRKQRPWHPAVVFSVQLAVSDLLCALTLPPLAAYLYPPKHWRYGEAACRLERFLFTCNLLGSVIFITCISLNRYLGIVHPFFARSHLRPKHAWAVSAAGWVLAALLAMPTLSFSHLKRPQQGAGNCSVARPEACIKCLGTADHGLAAYRAYSLVLAGLGCGLPLLLTLAAYGALGRAVLRSPGMTVAEKLRVAALVASGVALYASSYVPYHIMRVLNVDARRRWSTRCPSFADIAQATAALELGPYVGYQVMRGLMPLAFCVHPLLYMAAVPSLGCCCRHCPGYRDSWNPEDAKSTGQALPLNATAAPKPSEPQSRELSQ”, the protein production result is “failed”.

For “MAAPLAPWRVSAFNTAKQSENKMHDDTVARRFGFTGGLVPGVEVMAYMMHLPVARWGRDFLERGLIEARFVKPVYDGETATVTGEEQGEAITLAVESRGELCATGSASLPVRAPAVDLGAYPETAAATNRPPVGAQSFPEGHWFGTAPVNWGGAKLRDYLDEIRETDPIYRSDDLIHPGTLQRIMNRVLVDNVVLGPWIHVGSKMQLLAAARGDDVLTARAKVVANYDKKGHRFAEFDALIVANGDRPVAHCHHVAIFAPRQQAAA”, the protein production entry was “failed”.

As to “MAAPMEVAVCTDSAAPMWSCIVWELHSGANLLTYRGGQAGPRGLALLNGEYLLAAQLGKNYISAWELQRKDQLQQKIMCPGPVTCLTASPNGLYVLAGVAESIHLWEVSTGNLLVILSRHYQDVSCLQFTGDSSHFISGGKDCLVLVWSLCSVLQADPSRIPAPRHVWSHHTLPITDLHCGFGGPLARVATSSLDQTVKLWEVSSGELLLSVLFDVSIMAVTMDLAEHHMFCGGSEGSIFQVDLFTWPGQRERSFHPEQDAGKVFKGHRNQVTCLSVSTDGSVLLSGSHDETVRLWDVQSKQCIRTVALKGPVTNAAILLAPVSMLSSDFRPSLPLPHFNKHLLGAEHGDEPRHGGLTLRLGLHQQGSEPSYLDRTEQLQAVLCSTMEKSVLGGQDQLRVRVTELEDEVRNLRKINRDLFDFSTRFITRPAK”, the protein production entry is listed as “failed”.

“MAAQAAAAAQAAAAAQAAAAQAAQAEAAESWYLALLGFAEHFRTSSPPKIRLCVHCLQAVFPFKPPQRIEARTHLQLGSVLYHHTKNSEQARSHLEKAWLISQQIPQFEDVKFEAASLLSELYCQENSVDAAKPLLRKAIQISQQTPYWHCRLLFQLAQLHTLEKDLVSACDLLGVGAEYARVVGSEYTRALFLLSKGMLLLMERKLQEVHPLLTLCGQIVENWQGNPIQKESLRVFFLVLQVTHYLDAGQVKSVKPCLKQLQQCIQTISTLHDDEILPSNPADLFHWLPKEHMCVLVYLVTVMHSMQAGYLEKAQKYTDKALMRLEKLKMLDCSPILSSFQVILLEHIIMCRLVTGHKATALQEISQVCQLCQQSPRLFSNHAAQLHTLLGLYCVSVNCMDNAEAQFTTALRLTNHQELWAFIVTNLASVYIREGNRHQELYSLLERINPDHSFPVSSHCLRAAAFYVRGLFSFFQGRYNEAKRFLRETLKMSNAEDLNRLTACSLVLLGHIFYVLGNHRESNNMVVPAMQLASKIPDMSVQLWSSALLRDLNKACGNAMDAHEAAQMHQNFSQQLLQDHIEACSLPEHNLITWTDGPPPVQFQAQNGPNTSLASLL”: the protein production entry is on record as “failed”.

As to “MAARGFRAGADHLRHQFCPPLVDPHRPWTARMKLLALSGSLRADSVNTALLRALAEAAPAGVEVCFFDGLRDLPLFNPDAEERENAAVTAWRAALRGADAVVISSPEYAHGIPGAFKNALDWVVGSAEFDGKPTLLLCASARPQHAPAQLAEVLRTMGARVQGPHLLDLPGNVAAAQSALRTPAQQAEARELLAALLP”, the protein production result is “failed”.

Turning to “MAASMARGVSARVLLRAAGGSWGPRAGHAAVTSRTFGSTGERRAGEDEADSPELPRDVVNVVFVDRSGKRIPVRGRVGDNVLHLAQRHGVDLEGACEASLACSTCHVYVSEAHLDLLPPPEEREDDMLDMAPLLQENSRLGCQIVLTPELEGAEFALPKITRNFYVDGHIPKPH”, the protein production result is on record as “failed”.
